Biological target: T1, KDR/flk-1 VEGF receptor of HUVEC cells (human, UniProt P35968 20-1356)
T1 construct: whole, on cells; Endogenous receptor on confluent HUVEC cells; also called the larger VEGF receptor of HUVEC cells
Test: overview table, row 'Binding to Flk-1 and Flt-1 receptors'

T1 sequence (P35968 20-1356): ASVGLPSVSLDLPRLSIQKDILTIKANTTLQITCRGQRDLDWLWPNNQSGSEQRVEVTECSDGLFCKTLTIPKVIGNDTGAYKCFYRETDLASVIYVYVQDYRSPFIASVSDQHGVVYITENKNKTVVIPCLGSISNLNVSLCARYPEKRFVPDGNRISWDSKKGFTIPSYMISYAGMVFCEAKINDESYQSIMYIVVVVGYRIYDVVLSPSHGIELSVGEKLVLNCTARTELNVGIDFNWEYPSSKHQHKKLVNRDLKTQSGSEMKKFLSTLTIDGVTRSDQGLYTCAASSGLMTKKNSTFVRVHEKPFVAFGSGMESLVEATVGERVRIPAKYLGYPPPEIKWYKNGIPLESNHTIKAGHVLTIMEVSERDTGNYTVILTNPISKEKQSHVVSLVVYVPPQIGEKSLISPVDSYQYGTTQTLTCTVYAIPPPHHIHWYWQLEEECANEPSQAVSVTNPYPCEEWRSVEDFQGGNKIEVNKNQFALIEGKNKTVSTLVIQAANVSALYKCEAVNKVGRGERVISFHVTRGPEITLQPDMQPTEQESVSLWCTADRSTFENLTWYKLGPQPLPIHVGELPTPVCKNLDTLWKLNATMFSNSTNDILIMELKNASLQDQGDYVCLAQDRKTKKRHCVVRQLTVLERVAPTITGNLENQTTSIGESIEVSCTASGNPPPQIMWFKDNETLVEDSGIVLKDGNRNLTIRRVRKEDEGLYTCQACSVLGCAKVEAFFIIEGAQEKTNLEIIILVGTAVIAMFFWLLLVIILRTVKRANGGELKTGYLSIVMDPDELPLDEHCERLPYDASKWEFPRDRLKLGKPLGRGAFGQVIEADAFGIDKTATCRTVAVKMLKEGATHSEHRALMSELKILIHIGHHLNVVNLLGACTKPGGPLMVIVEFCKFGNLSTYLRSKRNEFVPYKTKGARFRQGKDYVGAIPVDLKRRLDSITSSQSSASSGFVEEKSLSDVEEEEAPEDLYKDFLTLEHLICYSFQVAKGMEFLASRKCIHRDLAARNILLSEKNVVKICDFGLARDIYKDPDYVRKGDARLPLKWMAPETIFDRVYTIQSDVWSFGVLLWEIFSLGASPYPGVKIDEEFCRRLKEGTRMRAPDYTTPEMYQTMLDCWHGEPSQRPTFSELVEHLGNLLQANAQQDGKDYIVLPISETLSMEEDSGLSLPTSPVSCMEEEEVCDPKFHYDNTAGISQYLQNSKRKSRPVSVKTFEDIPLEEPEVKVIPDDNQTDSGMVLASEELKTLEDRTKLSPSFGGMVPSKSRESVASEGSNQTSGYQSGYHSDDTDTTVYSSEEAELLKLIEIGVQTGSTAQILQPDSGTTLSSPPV

| Binder | binding result |
| --- | --- |
| VEGF121 (ligand, human, UniProt P15692-9 27-147, looked up, mature) APMAEGGGQNHHEVVKFMDVYQRSYCHPIETLVDIFQEYPDEIEYIFKPSCVPLMRCGGCCNDEGLECVPTEESNITMQIMRIKPHQGQHIGEMSFLQHNKCECRPKKDRARQEKCDKPRR | binds |
| VEGF145 (recombinant, produced in Sf9 insect cells by baculovirus) (ligand, partially purified on heparin-sepharose; also called VEGF exons 1-5, 6a, 8) APMAEGGGQNHHEVVKFMDVYQRSYCHPIETLVDIFQEYPDEIEYIFKPSCVPLMRCGGCCNDEGLECVPTEESNITMQIMRIKPHQGQHIGEMSFLQHNKCECRPKKDRARQEKKSVRGKGKGQKRKRKKSRYKSWSVCDKPRR | binds |

Reference: patent publication EP1426444A2 (Technion Research & Development Co., Ltd., dated 2004)
